Patent US20210188971A1

Target: TSHR on engineered CHO cells (UniProt P16473)
Assay: flow cytometry on CHO cells engineered with TSHR, detected with anti-human IgG1 Fc-Alexa Fluor 488

concentration at which fluorescence intensity peaked: 30 µg/mL
B1: M22 Fabs (control of Example 16) (Fab, V domains shown)
VH: QVQLVQSGAEVKKPGESLKISCRGSGYRFTSYWINWVRQLPGKGLEWMGRIDPTDSYTNYSPSFKGHVTVSADKSINTAYLQWSSLKASDTGMYYCARLEPGYSSTWSVNWGQGTLVTVSS
VL: LTVLTQPPSVSGAPRQRVTISCSGNSSNIGNNAVNWYQQLPGKAPKLLIYYDDQLPSGVSDRFSGSRSGTSASLAIRGLQSEDEADYYCTSWDDSLDSQLFGGGTRLTVL
